How the values were obtained:
[1] = target: Asterias forbesii ferritin (AfFer) (Asterias forbesii); experiment: native gel or EMSA; native-PAGE and SDS-PAGE of purified AfFer; subunits to the 24-mer cage
[2] = target: Asterias forbesii ferritin (AfFer) (Asterias forbesii); experiment: crystal structure; hanging drop vapour diffusion, 20 °C, 12.0 µM ferritin in 5.0 mM Tris-HCl; crystals with body-centered tetragonal (BCT) lattice; subunits in the 24-mer cage and cage to cage contacts

Asterias forbesii ferritin (AfFer) (natural protein)
stoichiometry N [1]: 24 | stoichiometry N [2]: 24
